Laboratory results reported in paper PMC6218445, “Pyruvate kinase M2 regulates homologous recombination-mediated DNA double-strand break repair” (Cell Research, 2018).

Biological target: T1, pyruvate kinase M2 (human (endogenous in U87), UniProt P14618 1-531)
T1 construct: pyruvate kinase M2 (PKM2), endogenous in the human glioblastoma cell line U87; In irradiated cells part of the nuclear PKM2 is phosphorylated at T328 by ATM; The lysates hold a mixture; also called PKM2; source: endogenous, U87 lysate
Test: not stated; association of PKM2 and CtIP after irradiation, with the ATM inhibitor KU55933 against without; legend of Fig. S7a not shown
Settings: partners not purified

T1 sequence (P14618 whole entry): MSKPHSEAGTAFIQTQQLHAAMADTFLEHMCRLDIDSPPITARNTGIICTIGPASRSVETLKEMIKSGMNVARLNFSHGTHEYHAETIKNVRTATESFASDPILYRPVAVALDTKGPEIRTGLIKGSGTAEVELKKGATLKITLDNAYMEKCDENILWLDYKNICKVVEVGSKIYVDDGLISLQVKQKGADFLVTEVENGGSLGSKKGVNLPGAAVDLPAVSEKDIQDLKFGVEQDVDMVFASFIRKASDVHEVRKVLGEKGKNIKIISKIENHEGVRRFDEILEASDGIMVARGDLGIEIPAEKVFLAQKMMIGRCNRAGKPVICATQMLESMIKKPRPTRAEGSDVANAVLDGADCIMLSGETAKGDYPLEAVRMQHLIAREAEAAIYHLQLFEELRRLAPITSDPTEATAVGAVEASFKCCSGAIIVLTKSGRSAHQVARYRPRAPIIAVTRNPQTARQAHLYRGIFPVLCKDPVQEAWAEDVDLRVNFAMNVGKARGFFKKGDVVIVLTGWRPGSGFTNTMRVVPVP

B1: CtBP-interacting protein (natural protein, human (endogenous in U87), UniProt Q99708 1-897, looked up)
chain: MNISGSSCGSPNSADTSSDFKDLWTKLKECHDREVQGLQVKVTKLKQERILDAQRLEEFFTKNQQLREQQKVLHETIKVLEDRLRAGLCDRCAVTEEHMRKKQQEFENIRQQNLKLITELMNERNTLQEENKKLSEQLQQKIENDQQHQAAELECEEDVIPDSPITAFSFSGVNRLRRKENPHVRYIEQTHTKLEHSVCANEMRKVSKSSTHPQHNPNENEILVADTYDQSQSPMAKAHGTSSYTPDKSSFNLATVVAETLGLGVQEESETQGPMSPLGDELYHCLEGNHKKQPFEESTRNTEDSLRFSDSTSKTPPQEELPTRVSSPVFGATSSIKSGLDLNTSLSPSLLQPGKKKHLKTLPFSNTCISRLEKTRSKSEDSALFTHHSLGSEVNKIIIQSSNKQILINKNISESLGEQNRTEYGKDSNTDKHLEPLKSLGGRTSKRKKTEEESEHEVSCPQASFDKENAFPFPMDNQFSMNGDCVMDKPLDLSDRFSAIQRQEKSQGSETSKNKFRQVTLYEALKTIPKGFSSSRKASDGNCTLPKDSPGEPCSQECIILQPLNKCSPDNKPSLQIKEENAVFKIPLRPRESLETENVLDDIKSAGSHEPIKIQTRSDHGGCELASVLQLNPCRTGKIKSLQNNQDVSFENIQWSIDPGADLSQYKMDVTVIDTKDGSQSKLGGETVDMDCTLVSETVLLKMKKQEQKGEKSSNEERKMNDSLEDMFDRTTHEEYESCLADSFSQAADEEEELSTATKKLHTHGDKQDKVKQKAFVEPYFKGDERETSLQNFPHIEVVRKKEERRKLLGHTCKECEIYYADMPAEEREKKLASCSRHRFRYIPPNTPENFWEVGFPSTQTCMERGYIKEDLDPCPRPKRRQPYNAIFSPKGKEQKT
notes: also called CtIP; source: endogenous, U87 lysate
fold reduction of the association by KU55933 after irradiation: > 2.5 fold
